From patent publication US20060246095A1, “Multiepitope polypeptides for cancer immunotherapy” (HADASIT MEDICAL RESEARCH SERVICES & DEVELOPMENT LTD., priority 2003, published 2006) come the findings set out here.

Assay [1] can be described thus: LTB-MEP fusion protein functional assay (GM1 ganglioside ELISA, anti-MEP detection). Conditions: GM1 ganglioside coated plates, chicken anti-MEP antibodies. Format: binding. Here is the method: LTB-MEP fusion protein expressed by the recombinant pQE30-LTB-MEP construct was tested for its ability to bind GM1 ganglioside and anti-MEP antibodies. LTB-MEP fusion protein was incubated in ELISA plates coated with GM1 ganglioside (which binds to native LTB) with chicken anti-MEP antibodies.
Only LTB-MEP molecules with functional LTB and MEP units can be detected by this assay. Boiled LTB-MEP protein losses its capability to bind to GM1 ganglioside and therefore could not be detected.
A BamHI-HindIII fragment encoding for MEP (SEQ ID NO: 1) was attached to a KpnI-HindIII fragment encoding for LTB (SEQ ID NO: 52) through a polynucleotide linker. The ligated product was cloned into pQE30 vector and transformed into E. Coli (JM109 strain). LTB-MEP fusion protein expressed in bacteria, was purified and further characterized by ELISA assay. Ganglioside GM1 coated plates were incubated at 37° C. in the presence of native or boiled LTB-MEP fusion protein, purified LTB and pQE30 DNA expression vector (without insert) molecules. […] LTB molecule is sensitive to temperature and heat treatment destroys its capability to bind to GM1 ganglioside. Since binding detection was performed using chicken anti-MEP antibodies only active LTB-MEP fusion protein could be detected.

In another assay the test system is DC. The assay is described as follows: DC maturation in vitro (preliminary data). Format: cell-based. The source says: A non-toxic form of LT (NLT) was produced by the present inventors. […] Thus, NLT and LTB could be developed as a delivery system for the presentation of tumor antigens to the immune system.

B1: Purified LTB (protein)
chain: APQTITELCSEYRNTQIYTINDKILSYTESMAGKREMVIITFKSGETFQVEVPGSQHIDSQKKAIERMKDTLRITYLTETKIDKLCVWNNKTPNSIAAISMKN
Regarding B1, the “OD 450 nm” value in assay [1] (treatment 37° C.) is reported as 1.05; in assay [1] (treatment Boiled), 0.98. The DC maturation entry with DC is listed as “induce DC maturation in vitro”.
